The target of the experiment is T1, pM-Gal4DBD-AR (amino acids 624-919), P10275.
T1 chain: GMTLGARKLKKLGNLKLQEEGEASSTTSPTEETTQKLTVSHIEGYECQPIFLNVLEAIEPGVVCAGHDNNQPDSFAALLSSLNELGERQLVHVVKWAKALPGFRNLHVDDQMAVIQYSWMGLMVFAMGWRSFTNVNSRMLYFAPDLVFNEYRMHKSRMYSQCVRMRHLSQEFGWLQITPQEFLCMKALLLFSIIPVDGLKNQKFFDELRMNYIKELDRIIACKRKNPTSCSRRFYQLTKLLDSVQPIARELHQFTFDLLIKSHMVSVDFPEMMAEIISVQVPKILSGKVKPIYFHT
Kind of experiment: mammalian two-hybrid. To be noted: chain shown with the change, HEK293T cells, read off a plot.

B1: pVP16-AR111Q (amino acids 12-660), P10275 F23A (protein)
chain: PRPPSKTYRGAAQNLFQSVREVIQNPGPRHPEAASAAPPGASLLLLQQQQQQQQQQQQQQQQQQQQQQQETSPRQQQQQQGEDGSPQAHRRGPTGYLVLDEEQQPSQPQSALECHPERGCVPEPGAAVAASKGLPQQLPAPPDEDDSAAPSTLSLLGPTFPGLSSCSADLKDILSEASTMQLLQQQQQEAVSEGSSSGRAREASGAPTSSKDNYLGGTSTISDNAKELCKAVSVSMGLGVEALEHLSPGEQLRGDCMYAPLLGVPPAVRPTPCAPLAECKGSLLDDSAGKSTEDTAEYSPFKGGYTKGLEGESLGCSGSAAAGSSGTLELPSTLSLYKSGALDEAAAYQSRDYYNFPLALAGPPPPPPPPHPHARIKLENPLDYGSAWAAAAAQCRYGDLASLHGAGAAGPGSGSPSAAASSSWHTLFTAEEGQLYGPCGGGGGGGGGGGGGGGGGGGGGGGEAGAVAPYGYTRPPQGLAGQESDFTAPDVWYPGGMVSRVPYPSPTCVKSEMGPWMDSYSGPYGDMRLETARDHVLPIDYYFPPQKTCLICGDEASGCHYGALTCGSCKVFFKRAAEGKQKYLCASRNDCTIDKFRRKNCPSCRLRKCYEAGMTLGARKLKKLGNLKLQEEGEASSTTSPTEETTQKL
For B1, the response (Relative Luciferase Units) (DHT treated, parent: est. 2.4) was found to be 0.35. Moreover, for the setting “DHT versus EtOH, parent: est. 2.2”, the other: Average Fold Change (DHT/EtOH treated) amounted to 0.9.

The record behind these values is publication PMC11067348.
